Assay [1] deals with T1, Shigella flexneri Spa15 (residues 1-133), N-terminal His tag, unlabelled (Shigella flexneri), P35530.
T1 chain: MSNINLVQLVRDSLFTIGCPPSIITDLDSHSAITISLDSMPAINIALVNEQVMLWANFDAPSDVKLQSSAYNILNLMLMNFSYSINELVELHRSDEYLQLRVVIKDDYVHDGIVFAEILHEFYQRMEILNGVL
Put plainly: SEC; HiLoad 26/60 Superdex 75, 20 mM Tris-HCl (pH 7.5), 150 mM NaCl; Spa15 alone. As to conditions: remark: other sources report otherwise. A general note: Size exclusion chromatography separates by hydrodynamic size, large species first.

Assay [2] deals with T1, Shigella flexneri Spa15 (residues …). The assay is described as follows: multi-angle laser light scattering; co-purified Spa15:IpgB1 complex; data not shown. As to conditions: remark: other sources report otherwise.

Here are results for one molecule from PMC3021122.

B1: Shigella flexneri Spa15 (residues 1-133), N-terminal His tag, unlabelled, P35530 1-133 (natural protein)
chain: MSNINLVQLVRDSLFTIGCPPSIITDLDSHSAITISLDSMPAINIALVNEQVMLWANFDAPSDVKLQSSAYNILNLMLMNFSYSINELVELHRSDEYLQLRVVIKDDYVHDGIVFAEILHEFYQRMEILNGVL
For B1, the stoichiometry N in assay [1] and in assay [2] was 2 in each case.
